According to doi:10.1101/2020.04.05.026310 (bioRxiv, 2020):

B1: mouse pyridoxal kinase (mPDXK), wild type (enzyme, UniProt Q8K183 1-312, looked up)
chain: MEGECRVLSIQSHVVRGYVGNRAAMFPLQVLGFEVDAVNSVQFSNHTGYAHWKGQVLKSQELHELYEGLKVNDVNKYDYVLTGYTRDKSFLAMVVDIVRELKQQNSRLVYVCDPVMGDKWNGEGSMYVPQDLLPVYRDKVVPVADIITPNQFEAELLSGRKIHSQEEAFEVMDMLHCMGPDTVVITSSDLPSSQGSDYLIALGSQRMRKPDGSTVTQRIRMEMRKVEAVFVGTGDLFAAMLLAWTHKHPDNLKVACEKTVSAMQHVLQRTIRCAKAEAGEGQKPSPAQLELRMVQSKRDIEDPEIVVQATVL
B2: mouse pyridoxal kinase (mPDXK) F43R (enzyme, UniProt Q8K183 1-312, looked up)
chain: MEGECRVLSIQSHVVRGYVGNRAAMFPLQVLGFEVDAVNSVQRSNHTGYAHWKGQVLKSQELHELYEGLKVNDVNKYDYVLTGYTRDKSFLAMVVDIVRELKQQNSRLVYVCDPVMGDKWNGEGSMYVPQDLLPVYRDKVVPVADIITPNQFEAELLSGRKIHSQEEAFEVMDMLHCMGPDTVVITSSDLPSSQGSDYLIALGSQRMRKPDGSTVTQRIRMEMRKVEAVFVGTGDLFAAMLLAWTHKHPDNLKVACEKTVSAMQHVLQRTIRCAKAEAGEGQKPSPAQLELRMVQSKRDIEDPEIVVQATVL
B3: mouse pyridoxal kinase (mPDXK) R86W (enzyme, UniProt Q8K183 1-312, looked up)
chain: MEGECRVLSIQSHVVRGYVGNRAAMFPLQVLGFEVDAVNSVQFSNHTGYAHWKGQVLKSQELHELYEGLKVNDVNKYDYVLTGYTWDKSFLAMVVDIVRELKQQNSRLVYVCDPVMGDKWNGEGSMYVPQDLLPVYRDKVVPVADIITPNQFEAELLSGRKIHSQEEAFEVMDMLHCMGPDTVVITSSDLPSSQGSDYLIALGSQRMRKPDGSTVTQRIRMEMRKVEAVFVGTGDLFAAMLLAWTHKHPDNLKVACEKTVSAMQHVLQRTIRCAKAEAGEGQKPSPAQLELRMVQSKRDIEDPEIVVQATVL
B4: mouse pyridoxal kinase (mPDXK) V41W (enzyme, UniProt Q8K183 1-312, looked up)
chain: MEGECRVLSIQSHVVRGYVGNRAAMFPLQVLGFEVDAVNSWQFSNHTGYAHWKGQVLKSQELHELYEGLKVNDVNKYDYVLTGYTRDKSFLAMVVDIVRELKQQNSRLVYVCDPVMGDKWNGEGSMYVPQDLLPVYRDKVVPVADIITPNQFEAELLSGRKIHSQEEAFEVMDMLHCMGPDTVVITSSDLPSSQGSDYLIALGSQRMRKPDGSTVTQRIRMEMRKVEAVFVGTGDLFAAMLLAWTHKHPDNLKVACEKTVSAMQHVLQRTIRCAKAEAGEGQKPSPAQLELRMVQSKRDIEDPEIVVQATVL
B5: mouse pyridoxal kinase (mPDXK) V41W/F43R double mutant (enzyme, UniProt Q8K183 1-312, looked up)
chain: MEGECRVLSIQSHVVRGYVGNRAAMFPLQVLGFEVDAVNSWQRSNHTGYAHWKGQVLKSQELHELYEGLKVNDVNKYDYVLTGYTRDKSFLAMVVDIVRELKQQNSRLVYVCDPVMGDKWNGEGSMYVPQDLLPVYRDKVVPVADIITPNQFEAELLSGRKIHSQEEAFEVMDMLHCMGPDTVVITSSDLPSSQGSDYLIALGSQRMRKPDGSTVTQRIRMEMRKVEAVFVGTGDLFAAMLLAWTHKHPDNLKVACEKTVSAMQHVLQRTIRCAKAEAGEGQKPSPAQLELRMVQSKRDIEDPEIVVQATVL

Target: the molecule itself
Experiment: SEC-MALS

Stoichiometry N, 2:
B1
B2
B3
B4
B5
